The values below come from US20260356982 (published 2026).

The target of experiment [1] is T1, FLAG tag.
T1 chain: DYKDDDDK
Put plainly: SPR. (In general: SPR reads the build-up and loss of mass on a sensor chip optically.)

Experiment [2] has as its target T1, FLAG tag. Put plainly: SPR bivalent.

Residue numbers refer to the chain shown, from its start.

B1: V7 scFv (antibody, V domains shown)
VH: QVQLVQSGAEVKKPGASVKVSCKASGYSFTTYTMHWVRQAPGQGLEWMGYINPSSGYAAYNQKFQGRVTMTADKSTSTAYMELSSLRSEDTAVYYCAREKFYGYDYWGQGTTVTVSS
VL: DVVMTQSPDSLAVSLGERATINCKSSQSIVHRNGNTYLEWYQLKPGQPPKLLIYKVSNRFSGVPDRFSGSGSGTDFTLTISSLQAEDVAVYYCFQGSHVPYTFGGGTKLEIK
In turn, B1 registered a Kd with FLAG tag [1] of 15 nM.

B2: V3 scFv (antibody, V domains shown)
VH: B1 VH with M34I, M48I, M70L
VL: B1 VL
In turn, B2 gave a Kd in the experiment with FLAG tag [1] of 19 nM.

B3: V3 IgG (antibody, V domains shown)
VH: B1 VH with M34I, M48I, M70L
VL: B1 VL
In the experiment with FLAG tag [2], B3 came in with a Kd of 1 nM.

B4: V4 IgG (antibody, V domains shown)
VH: B1 VH with M34I, M48I, M70L
VL: B1 VL with L43Q
The molecule B4 came in with a Kd with FLAG tag [2] of 0.91 nM.

B5: V7 IgG (antibody, V domains shown)
VH: B1 VH
VL: B1 VL
Regarding B5, in the experiment with FLAG tag [2], the Kd was found to be 1.3 nM.

B6: V4 scFv (antibody, V domains shown)
VH: B1 VH with M34I, M48I, M70L
VL: B1 VL with L43Q
B6 displayed a Kd in the experiment with FLAG tag [1] of 22 nM.

B7: Parental (mouse VH/VL, human constant regions) (antibody, V domains shown)
VH: QVQLQQSAGELARPGASVKMSCKASGYSFTTYTIHWVKQRPGQGLEWIGYINPSSGYAAYNQNFKDETTLTADKSSSTAYMQLSSLTSEDSAVYYCAREKFYGYDYWGQGTTLTVSS
VL: DVLMTQLPLSLPVSLGDQASISCRSSQSIVHRNGNTYLEWYLLKPGQSPKLLIYKVSNRFSGVPDRFSGSGSGTDFTLKISRVEAEDLGVYYCFQGSHVPYTFGGGTKLEIK
B7 showed a Kd with FLAG tag [2] of 0.96 nM.
